± gives the uncertainty stated by the source.

The data set in a line: amyloid nucleation score (Sup35N fusion, yeast selection) (log enrichment); library NNK2; higher = more nucleation; inactive = no reads after selection. The essentials: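 Random libraries were run with three technical output replicates. In each, psi-negative yeast expressing Sup35N fused to peptides of 20 random codons were induced 24 hours with 100 μM copper sulfate and grown 7 days at 30°C on medium lacking adenine and uracil, and input and output plasmid inserts were Illumina-sequenced. The nucleation score is the DiMSum log enrichment of output over input reads, centred on the mode score of non-aggregating sequences, and sequences under 100 input reads were excluded.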
Turning to RVLTGWVVA, the amyloid nucleation score turned out to be 0.215 ± 0.76.
With RVMMSRISYSLSCVSADKVR the figure was 0.288 ± 0.24.
The value for RVMSVCGSYVNRGEADVVSG was 0.364 ± 0.18.
With RVNCYYSFRS, the amyloid nucleation score was found to be 6.026 ± 0.038.
RVRGWLSMSWGCGMGLPASS had an amyloid nucleation score of 7.03 ± 0.074.
RVRIGQAGVWAPRPKELTLW came in with an amyloid nucleation score of 0.679 ± 0.81.
The value for RVSHREFYLRGTLVETLLDD was “inactive”; that for RVSLLMYGWRVGRTNVCGLC was 1.41 ± 0.53.
The value for RVTFNFRGMYKLIIMGGVPP was 6.49 ± 0.085.
RVVFKHENLDMWCWMS registered an amyloid nucleation score of 1.47 ± 0.11.
The value for RVVLCVNLSPTSFVWSRIKE was 3.45 ± 0.15.
With RVVRLAFNPRPSDAWILYR the figure was 0.325 ± 0.34; with RVYLFFYAYHHVICANSSYK, -1.11 ± 0.56.
Substance RWCGIGRLGVSNGIVPCWEM yielded an amyloid nucleation score of 0.647 ± 0.17.
The value for RWEDRPSVTRRSGVRNGFSG was “inactive”; that for RWIVGQRRKIESWWQMVPIY was 0.81 ± 0.4; that for RWIVRDSFESWFMVLD was -0.267 ± 0.35.
With RYENPLYVCDWGFGASLFRP the figure was 0.237 ± 0.22.
Substance RYIGMLRFVVCDYGLMIFWS came in with an amyloid nucleation score of -0.394 ± 1.1.
The value for RYIVILSFVRGSWLYFLTRT was -0.543 ± 0.5.
The substance RYKSFMVQQSIDNRVLVGVC came in with an amyloid nucleation score of 0.241 ± 0.8.
The substance RYLSLVFVYIVGVLYSSCDV displayed an amyloid nucleation score of 0.383 ± 0.14.
The value for RYLVVKEQDFPDEYAPY was -0.271 ± 0.55; that for RYMRFYRLAGPAVLRFHLR was “inactive”; that for RYNDAFSVCRMDEITAWIWC was 2.67 ± 0.085.
With RYWWRVRIYFVCCVSSLDWV the figure was 7.09 ± 0.077; with SAFYSDAL, 1.08 ± 0.54; with SALHCISLDVHRIFGSKNAR, 1.36 ± 0.46.
The value for SALIF was 0.115 ± 1; that for SALSGRYAKTLRNGHGLYQE was “inactive”.
The substance SARAICMAVLESSESDHNGV came in with an amyloid nucleation score of -0.299 ± 0.36.
With SASDTRGCCQHIPVSLGILT the figure was 0.119 ± 0.74; with SATFWLFVGVENVADMSKVG, 0.261 ± 0.4.
SATRDYHRLWCVVRLLLNAA came in with an amyloid nucleation score of 0.342 ± 0.46.
SAVHENVIGVFFGVLVYSNA: the amyloid nucleation score is 2.42 ± 0.1.
The value for SCAGSWNNKGGSKLQWDFLV was -1.82 ± 0.75; that for SCCRGEF was -0.235 ± 0.61; that for SCCYVLKRDFKLMNNVPSGR was -0.033 ± 0.2.
With SCDIRRSLVSRAQICVCIVM the figure was 7.534 ± 0.071; with SCFLSMYVISV, “inactive”; with SCFRC, 9.804 ± 0.047.
The value for SCGRMMTVVMIWGNWRSWSS was -0.439 ± 0.76; that for SCLEMYSHRVPWSFACDDYN was “inactive”.
In turn, SCLTNGY yielded an amyloid nucleation score of -0.154 ± 0.38.
With SCPGLGNRIPDTVKYT the figure was 0.969 ± 0.22.
On to SCPMTSYGE, for which the amyloid nucleation score was determined as 0.319 ± 0.8.
The substance SCRVRFNRSCAPGNSQIGMS yielded an amyloid nucleation score of 8.674 ± 0.058.
The value for SCSMLVRDDIIIEPDCLLGV was 0.45 ± 0.74; that for SCVLRP was 0.064 ± 0.33.
As for SCYFLFGHDG, the amyloid nucleation score was -0.517 ± 0.49.
With SCYIDRTRYWDGYFLLCSMD, the amyloid nucleation score came to 0.949 ± 0.74.
As to SCYNFVWYTCGLYMWLNCLL, the amyloid nucleation score is -0.793 ± 0.32.
With SDGEKFG the figure was -0.256 ± 1.1.
The value for SDHFKWV was -1.05 ± 1; that for SDLLFVLASLSCLQWNKDIA was -0.457 ± 0.25.
With SDLTIVVSMLGFIPCSCHAF, the amyloid nucleation score is 6.328 ± 0.05.
With SDRFMIVVDWVILVVLCMT the figure was -0.611 ± 0.39.
The value for SDRMLCEGNYCWCVSENVLL was 6.12 ± 0.061.
SDSFKDPTWREDNRGW returned an amyloid nucleation score of 2.54 ± 0.085.
Turning to SDSKG, the amyloid nucleation score was found to be 0.113 ± 1.1.
With SDTVYLIFFSLAYNYVKRVT the figure was -1.74 ± 0.41.
With SDWFW the figure was -0.664 ± 0.5; with SELKMWYTDMVSTSKLDCIL, -0.125 ± 0.46; with SELLRTLGALSFYMYSFIKH, -1.98 ± 0.54.
Turning to SERRGIIGSGLRDGRVLFTT, the amyloid nucleation score entry was “inactive”.
With SESGR the figure was 1.74 ± 0.21.
The substance SESMFLVKDSLTWTDVFLIG gave an amyloid nucleation score of -1.07 ± 1.1.
In turn, SFCDLWLLAQDHAKLLGFIA had an amyloid nucleation score of -0.499 ± 0.55.
With SFDFHNGGDIEYLV the entry was “inactive”.
In the case of SFDSVELARGTASCRVAYFV, the amyloid nucleation score was found to be 0.731 ± 0.35.
With SFGENLVYCMRSIVTSPYRL the figure was -0.364 ± 0.24.
With SFGGARVSLLCCFPSTSIAS, the amyloid nucleation score is 9.374 ± 0.036.
With SFGTFSCLYSVYNI, the amyloid nucleation score worked out at 2.84 ± 0.086.
The value for SFILD was “inactive”; that for SFITCRFNRDCFLLQFSWYN was “inactive”; that for SFIWSLMSLIEFPVLYKSVV was 0.067 ± 0.32.
With SFKICKLMNSNRFFVGICCT, the amyloid nucleation score was 0.057 ± 1.1.
The value for SFKYCMMISGGF was 4.503 ± 0.041; that for SFLLRWSRFVYICYSICCMI was -1.02 ± 0.55; that for SFLVISWRADRFAA was 5.124 ± 0.042.
SFLWLSMFVESAQVVNLQLY registered an amyloid nucleation score of 5.485 ± 0.038.
With SFPAGICPLMRLVYVNMGVG the figure was -0.683 ± 1.1.
In turn, SFPDSSRSKWIS gave an amyloid nucleation score of -0.775 ± 0.45.
SFPYNHFYMDYMPVRAPLVV had an amyloid nucleation score of -0.153 ± 1.1.
With SFRFGEKDCWLDCCRVMRKK the figure was 5.59 ± 0.068; with SFRQIATLYEKMFNDNGNGI, -0.528 ± 0.37.
With SFRRSPELSQEFTRGYDSYR the figure was -0.276 ± 0.76; with SFRTAHSAPEVGMLEVYMNL, 0.334 ± 0.5; with SFVMYRNSGRVCGMRVASEW, 0.766 ± 0.22.
The value for SFYVIRVGSLPFRS was 3.25 ± 0.075.
SGCASSSDTFDRSLCCEYTL showed an amyloid nucleation score of 0.295 ± 1.
Regarding SGDHDGHEMRILRWSMLRYG, the amyloid nucleation score turned out to be 1.56 ± 0.11.
As for SGERRTGCPEAAS, the amyloid nucleation score came out at 0.075 ± 0.34.
The value for SGFCQGGNSSRYMSII was 1.9 ± 0.27.
The value for SGFGGLEGFIRPSYSLLAGW was -0.424 ± 0.48; that for SGFNGFSLNHFQNQFKTPRS was -0.356 ± 1.1; that for SGFVIWRRQHFEFQEVRSS was -0.515 ± 1.1.
In turn, SGGLSR yielded an amyloid nucleation score of -0.728 ± 0.79.
The value for SGIMRIE was “inactive”; that for SGIRDTLVSWGPRGMG was -0.309 ± 0.45; that for SGNGTVRSEYTRYCCLKGEM was 0.822 ± 0.3.
With SGQKFN the figure was 0.015 ± 0.76.
Turning to SGQYKENYGGFHHMLVRWRC, the amyloid nucleation score was -0.042 ± 0.27.
With SGSALLIEFRYSTSFREKRI, the amyloid nucleation score was found to be 5.687 ± 0.046.
In the case of SGSHVYFKSCTGLKLPIVLG, the amyloid nucleation score turned out to be 4.498 ± 0.04.
Consider SGSLSINDNSCYGENTNTVL, for which the amyloid nucleation score was -1.21 ± 1.1.
With SGTDHNRMYF the figure was 0.312 ± 0.57.
SHFCN showed an amyloid nucleation score of 0.859 ± 0.43.
Regarding SHGFFMAVEGLNCVRFVIIL, the amyloid nucleation score entry was “inactive”.
With SHHHSQTRKIDPSTDFSQSS the figure was -0.047 ± 1.1; with SHIDMFAQECYLCFANVHRR, 2.78 ± 0.21.
With SHLALTY the figure was 0.14 ± 0.25; with SHLCHLGGSRRTQRVVEVSS, 5.72 ± 0.064; with SHMSHYRNSSTDFAA, -0.745 ± 0.42.
Take SHRMTSNNTNSNLLGRKTGS: the amyloid nucleation score was -0.139 ± 0.19.
SHTDYHRFAWMF gave an amyloid nucleation score of -1.74 ± 0.53.
Turning to SHTSCGMKVSLRICHSMGQR, the amyloid nucleation score is 6.434 ± 0.057.
The value for SHWCIVYKGLRNVIVC was “inactive”.
The value for SHWEMRQVGSVVVGIKGKGN was 0.972 ± 0.67; that for SICYFCLFLNIIDSDSIFAV was 5.87 ± 0.059.
Turning to SIFNFKATFGNSSRDVMSDD, the amyloid nucleation score is 3.28 ± 0.057.
On to SIGFPSMSMRSWILFTSLYR, for which the amyloid nucleation score stood at 0.004 ± 0.8.
With SIGPQRHLPYLLVFVYWTLS the figure was 0.309 ± 0.8; with SIGWRPPCLVFDVGWRREGQ, -0.109 ± 0.42; with SIIGVYLCFLSFRTNVLWKT, -0.122 ± 0.27.
With SILGSSRTCILSSWWNVGTL the figure was -0.091 ± 0.8; with SIMGRIKIAIHVLRS, 4.12 ± 0.091; with SIRIKRLSNLQSRNPVRPRV, -0.578 ± 1.1.
With SIRRCPVKFINKRLVVYLKV the figure was -0.88 ± 0.55.
SISLEIHTAGTGKSRLPFYS displayed an amyloid nucleation score of 5.67 ± 0.073.
For SISRISPTQGIIGQTRFFYV, the amyloid nucleation score was -1.14 ± 0.76.
With SISSGMVDVAGQLSCTRVSE, the amyloid nucleation score came out at 1.65 ± 0.32.
For the substance SITYTNLMNTLQAIRTSFLA, the amyloid nucleation score was -0.708 ± 1.1.
The value for SIVNFWNMIVE was 3.32 ± 0.15; that for SIWYSNYNNSRKIPSAYKKW was 2.34 ± 0.071; that for SKFLM was -1.14 ± 0.48.
With SKFWVARRCFASHLK the figure was -0.272 ± 1.1; with SKGGCTEFIEKTWNLCSCLV, -1.1 ± 0.78.

The record behind these values is the supplement of paper PMC12042874.
